Results taken from paper PMC12108577.
Several values for one entry are separate records, joined by “and”; a condition that tells them apart may be missing. Equal values may be shown once.

Assays:
CXCL1-Fc fusion protein = CXCL1-Fc fusion protein (UniProt P09341); experiment: SDS-PAGE under reducing and non-reducing conditions; purified proteins separated under reducing and non-reducing conditions, Coomassie Blue staining
[1] = biological target: CXCR2 on THP-1 cells (human (endogenous in THP-1)) (UniProt P25025); experiment: flow cytometry on cells; THP-1 cells incubated on ice with purified proteins for 30 min; bound protein detected with a fluorophore-conjugated anti-His tag antibody; FACS buffer (PBS, 1% FBS, 150 μM CaCl2); Fc receptors blocked with Human SeroBlock; single dose and a range of concentrations
CXCR2 on THP-1 cells = CXCR2 on THP-1 cells (UniProt P25025); experiment: flow cytometry on cells; details: THP-1 cells (CXCR2+), FITC-conjugated anti-6X His antibody
[2] = biological target: CXCR2 on THP-1 cells (human (endogenous in THP-1)) (UniProt P25025)
CXCL5-Fc fusion protein = CXCL5-Fc fusion protein (UniProt P42830); experiment: SDS-PAGE under reducing and non-reducing conditions; purified proteins separated under reducing and non-reducing conditions, Coomassie Blue staining
[3] = n = 3, parent: est. 100000, read off a plot

Chain of CXCL1^1-Fc^2 (P09341 whole entry, looked up, tested part not stated): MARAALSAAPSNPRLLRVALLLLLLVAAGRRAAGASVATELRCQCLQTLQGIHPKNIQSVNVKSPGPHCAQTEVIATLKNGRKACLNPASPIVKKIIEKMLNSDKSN
Chain of CXCL1^1-Fc^1 (P09341 whole entry): as the sequence (P09341 whole entry, looked up, tested part not stated) above

In the case of “CXCL1-Fc fusion protein (from UniProt P09341 35-107)”, the stoichiometry N (CXCL1-Fc fusion protein) is reported as 2 and the fold higher mean fluorescence intensity per cell than CXCL1^1-Fc^2 or CXCL1^1-Fc^1 [1] is reported as 3 fold and 4 fold.
“CXCL1-Fc fusion protein (from UniProt P09341) CXCL1-Fc chain:T366Y; Fc chain:Y407T” showed a response (CXCR2 on THP-1 cells; [3]) of 19000 MFI and a response (CXCR2 on THP-1 cells; parent: 99.9) of 98.5%.
With “CXCL1-Fc fusion protein (from UniProt P09341) T366Y” the response (CXCR2 on THP-1 cells; [3]) was 22000 MFI and the response (CXCR2 on THP-1 cells; parent: 99.9) was 97.9%.
In the case of “CXCL1^1-Fc^1 (from UniProt P09341 35-107) (Fc fusion)”, the IC50 of inhibition of THP-1 cell migration toward PDAC conditioned medium (Boyden chamber) [2] is reported as 0.211 µM.
In the case of “CXCL1^1-Fc^2 (from UniProt P09341 35-107) (Fc fusion)”, the IC50 of inhibition of THP-1 cell migration toward PDAC conditioned medium (Boyden chamber) [2] is reported as 0.028 µM.
In the case of “CXCL5-Fc fusion protein (from UniProt P42830 37-114)”, the stoichiometry N (CXCL5-Fc fusion protein) is reported as 2.
